Source: patent US20150086555A1
“And” between values parts separate entries of the source, which are not always exact repeats. Equal values may be shown once. Read-outs that look alike come from different tables or passages of the source.

Assays:
Conditions in all cases: remark: other sources report otherwise
[1] = molecular target: T1, recombinant soluble homotrimeric HA of A/Anhui/1/05 (H5N1) (Influenza A virus A/Anhui/1/2005(H5N1)); test: HA microarray, BCC supernatant
[2] = molecular target: T2, recombinant soluble homotrimeric HA of A/Wisconsin/67/05 (H3N2) (Influenza A virus A/Wisconsin/67/2005(H3N2)); test: HA microarray, BCC supernatant
[3] = molecular target: T3, recombinant soluble homotrimeric HA of A/duck/Yangzhou/02/05 (H8N4) (Influenza A virus A/duck/Yangzhou/02/2005(H8N4)); test: HA microarray, BCC supernatant
[4] = molecular target: T4, recombinant soluble homotrimeric HA of A/northern shoveler/California/HKWF115/07 (H6) (Influenza A virus A/northern shoveler/California/HKWF115/2007(H6N1)); test: HA microarray, BCC supernatant
[5] = molecular target: recombinant homotrimeric HA A/Anhui/1/05 H5N1 (Influenza A virus A/Anhui/1/2005(H5N1)); test: protein microarray, purified IgG, trimeric HA
[6] = molecular target: recombinant homotrimeric HA A/Egypt/3300-NAMRU3/08 H5N1 (Influenza A virus A/Egypt/3300-NAMRU3/2008(H5N1)); test: protein microarray, purified IgG, trimeric HA
[7] = molecular target: recombinant homotrimeric HA A/Hong Kong/156/97 H5N1 (Influenza A virus A/Hong Kong/156/97 (H5N1)); test: protein microarray, purified IgG, trimeric HA
[8] = molecular target: recombinant homotrimeric HA A/Indonesia/5/05 H5N1 (Influenza A virus A/Indonesia/5/2005(H5N1)); test: protein microarray, purified IgG, trimeric HA
[9] = molecular target: recombinant homotrimeric HA A/Japan/305/57 H2N2 (Influenza A virus A/Japan/305/1957(H2N2)); test: protein microarray, purified IgG, trimeric HA
[10] = molecular target: recombinant homotrimeric HA A/Netherlands/219/03 H7N7 (Influenza A virus A/Netherlands/219/03(H7N7)); test: protein microarray, purified IgG, trimeric HA
[11] = molecular target: recombinant homotrimeric HA A/South Carolina/1/18 H1N1 (Influenza A virus A/South Carolina/1/18 (H1N1)); test: protein microarray, purified IgG, trimeric HA
[12] = molecular target: recombinant homotrimeric HA A/Vietnam/1203/04 H5N1 (Influenza A virus A/VietNam/1203/2004(H5N1)); test: protein microarray, purified IgG, trimeric HA
[13] = molecular target: recombinant homotrimeric HA A/Wisconsin/67/05 H3N2 (Influenza A virus A/Wisconsin/67/2005(H3N2)); test: protein microarray, purified IgG, trimeric HA
[14] = molecular target: recombinant homotrimeric HA A/chicken/Vietnam/NCVD-016/08 H5N1 (Influenza A virus A/chicken/Vietnam/NCVD-016/2008(H5N1)); test: protein microarray, purified IgG, trimeric HA
[15] = molecular target: recombinant homotrimeric HA A/duck/Yangzhou/02/05 H8N4 (Influenza A virus A/duck/Yangzhou/02/2005(H8N4)); test: protein microarray, purified IgG, trimeric HA
[16] = molecular target: recombinant homotrimeric HA A/northern shoveler/California/HKWF115/07 H6N4 (Influenza A virus A/northern shoveler/California/HKWF115/2007(H6N1)); test: protein microarray, purified IgG, trimeric HA
[17] = molecular target: recombinant homotrimeric HA A/swine/Ontario/01911-2/99 H4N6 (Influenza A virus A/Swine/Ontario/01911-2/99 (H4N6)); test: protein microarray, purified IgG, trimeric HA
[18] = molecular target: T1, recombinant soluble homotrimeric HA of …; test: trimeric HA microarray, transfection supernatant set 3
[19] = molecular target: T5, recombinant soluble homotrimeric HA of A/California/4/09 (H1N1) (Influenza A virus A/California/04/2009(H1N1)); test: as above
[20] = molecular target: T6, recombinant soluble homotrimeric HA of A/Egypt/3300-NAMRU3/08 (H5N1) (Influenza A virus A/Egypt/3300-NAMRU3/2008(H5N1)); test: as above
[21] = molecular target: T7, recombinant soluble homotrimeric HA of A/Hong Kong/2108/03 (H9N2) (Influenza A virus A/HK/2108/2003(H9N2)); test: as above
[22] = molecular target: T8, recombinant soluble homotrimeric HA of A/Indonesia/5/05 (H5N1) (Influenza A virus A/Indonesia/5/2005(H5N1)); test: as above
[23] = molecular target: T9, recombinant soluble homotrimeric HA of A/Netherlands/219/03 (H7N7) (Influenza A virus A/Netherlands/219/03(H7N7)); test: as above
[24] = molecular target: T10, recombinant soluble homotrimeric HA of A/South Carolina/1/18 (H1N1) (Influenza A virus A/South Carolina/1/18 (H1N1)); test: as above
[25] = molecular target: T2, recombinant soluble homotrimeric HA of …; test: as above
[26] = molecular target: T3, recombinant soluble homotrimeric HA of …; test: as above
[27] = molecular target: recombinant soluble homotrimeric HA of H1N1 A/California/04/09 (Influenza A virus A/California/04/2009(H1N1)); test: ProteOn biosensor, HA-CA captured on anti-V5 surface, Fab in solution
[28] = molecular target: T1, recombinant soluble homotrimeric HA of …
[29] = molecular target: T5, recombinant soluble homotrimeric HA of …
[30] = molecular target: T6, recombinant soluble homotrimeric HA of …
[31] = molecular target: recombinant soluble homotrimeric HA of A/Hong Kong/1073/99 (H9N2) (Influenza A virus A/Hong Kong/1073/99 (H9N2))
[32] = molecular target: recombinant soluble homotrimeric HA of A/Hong Kong/156/97 (H5N1) (Influenza A virus A/Hong Kong/156/97 (H5N1))
[33] = molecular target: T7, recombinant soluble homotrimeric HA of …
[34] = molecular target: T8, recombinant soluble homotrimeric HA of …
[35] = molecular target: recombinant soluble homotrimeric HA of A/Japan/305/57 (H2N2) (Influenza A virus A/Japan/305/1957(H2N2))
[36] = molecular target: T9, recombinant soluble homotrimeric HA of …
[37] = molecular target: recombinant soluble homotrimeric HA of A/Solomon Islands/3/06 (H1N1) (Influenza A virus A/Solomon Islands/3/2006(H1N1))
[38] = molecular target: T10, recombinant soluble homotrimeric HA of …
[39] = molecular target: recombinant soluble homotrimeric HA of A/Vietnam/1203/04 (H5N1) (Influenza A virus A/VietNam/1203/2004(H5N1))
[40] = molecular target: recombinant soluble homotrimeric HA of A/chicken/Vietnam/NCVD-016/08 (H5N1) (Influenza A virus A/chicken/Vietnam/NCVD-016/2008(H5N1))
[41] = molecular target: T3, recombinant soluble homotrimeric HA of …
[42] = molecular target: T4, recombinant soluble homotrimeric HA of …
[43] = molecular target: recombinant soluble homotrimeric HA of A/swine/Ontario/01911-2/99 (H4N6) (Influenza A virus A/Swine/Ontario/01911-2/99 (H4N6))

B1: TCN-531 (5091_H13) (antibody, V domains shown)
VH: EVQLVESGGDLVQPGRSLKLSCTGSGFTFGDYGVTWVRQAPGKGLEWVGFIRTRPWGGTADTAASVKGRFTISRDDSKSLAYLQMNSLKTEDTAVYYCCRDAPPNVEVASMTNWYFDLWGRGTLVTVSS
VL: DIQLTQSPSSLSASVGDRVTITCRASQGILNCLAWYQQKPGKVPNLLMYAASTLQSGVPSRFSGSGFGTDFTLTISSLQPEDVATYYCQTYGGVSTFGGGTKVEIR
Question: B1 was tested. Which Trimeric HA Binding: RLU [1] did it give?
Answer: The Trimeric HA Binding: RLU was 3610 RLU.

Question: And the Trimeric HA Binding: RLU [2]?
Answer: The Trimeric HA Binding: RLU was 7090 RLU.

Question: What about the Trimeric HA Binding: RLU [3] of the same binder?
Answer: The Trimeric HA Binding: RLU was 3120 RLU.

Question: And the Trimeric HA Binding: RLU [4]?
Answer: The Trimeric HA Binding: RLU was 43900 RLU.

Question: And the Trimeric HA Binding: RLU [5]?
Answer: Its Trimeric HA Binding: RLU is 4960 RLU.

Question: What about the Trimeric HA Binding: RLU [6] of the same binder?
Answer: Its Trimeric HA Binding: RLU is 2810 RLU.

Question: What about the Trimeric HA Binding: RLU [7] of the same binder?
Answer: Its Trimeric HA Binding: RLU is 259 RLU.

Question: What about the Trimeric HA Binding: RLU [8] of the same binder?
Answer: Its Trimeric HA Binding: RLU is 84 RLU.

Question: And the Trimeric HA Binding: RLU [9]?
Answer: The Trimeric HA Binding: RLU was 441 RLU.

Question: What about the Trimeric HA Binding: RLU [10] of the same binder?
Answer: Its Trimeric HA Binding: RLU is 170 RLU.

Question: What about the Trimeric HA Binding: RLU [11] of the same binder?
Answer: The Trimeric HA Binding: RLU was 56 RLU.

Question: And the Trimeric HA Binding: RLU [12]?
Answer: The Trimeric HA Binding: RLU was 488 RLU.

Question: What about the Trimeric HA Binding: RLU [13] of the same binder?
Answer: Its Trimeric HA Binding: RLU is 20600 RLU.

Question: What about the Trimeric HA Binding: RLU [14] of the same binder?
Answer: Its Trimeric HA Binding: RLU is 124 RLU.

Question: What about the Trimeric HA Binding: RLU [15] of the same binder?
Answer: The Trimeric HA Binding: RLU was 112 RLU.

Question: What about the Trimeric HA Binding: RLU [16] of the same binder?
Answer: Its Trimeric HA Binding: RLU is 45 RLU.

Question: What about the Trimeric HA Binding: RLU [17] of the same binder?
Answer: The Trimeric HA Binding: RLU was 84 RLU.

Question: And the Trimeric HA Binding: RLU [18]?
Answer: Its Trimeric HA Binding: RLU is 76 RLU.

Question: What about the Trimeric HA Binding: RLU [19] of the same binder?
Answer: Its Trimeric HA Binding: RLU is 2830 RLU.

Question: What about the Trimeric HA Binding: RLU [20] of the same binder?
Answer: The Trimeric HA Binding: RLU was 363 RLU.

Question: What about the Trimeric HA Binding: RLU [21] of the same binder?
Answer: The Trimeric HA Binding: RLU was 158 RLU.

Question: What about the Trimeric HA Binding: RLU [22] of the same binder?
Answer: The Trimeric HA Binding: RLU was 54 RLU.

Question: And the Trimeric HA Binding: RLU [23]?
Answer: The Trimeric HA Binding: RLU was 384 RLU.

Question: And the Trimeric HA Binding: RLU [24]?
Answer: The Trimeric HA Binding: RLU was 1560 RLU.

Question: What about the Trimeric HA Binding: RLU [25] of the same binder?
Answer: The Trimeric HA Binding: RLU was 4160 RLU.

Question: And the Trimeric HA Binding: RLU [26]?
Answer: The Trimeric HA Binding: RLU was 3220 RLU.

B2: Fab fragment of TCN-522 (Fab, V domains shown)
VH: QVQLQQWGAGLLKPSETLSLTCTVSGGSLTDYSWNWIRQPPGKGLEWIGDTLHNGYTNYNPSLRGRVSISIDTSKNQVSLRLTSVTAADTALYYCARGSGGYGGFDYFGKLRTWDFWGQGTLVTVSS
VL: DIQLTQSPSSLSASVGDRVTITCRASQGIRNDLGWYQQKPGNAPKRLIFGASSLQSGVPSRFSGSGSGTEFTLTISSLQPEDFATYYCLQHNSYPYTFGQGTKLEIK
Question: Which fold slower on-rate (ka) than the other Fabs [27] does the source give for B2 here?
Answer: Its fold slower on-rate (ka) than the other Fabs is 5 fold and 8 fold.

B3: TCN-564 (5256_A17b) (antibody, V domains shown)
VH: QVQLVQSGADVKKPGSSVTVSCKASGGSFSNYGINWVRQAPGQGLEWMGGIIPLINAPNYAPKFQGRVTITADMFSNIVSLQLTSLRTDDTAVYYCARRKMTTAIDYWGQGTLVTVSS
VL: QPVLSQPPSASASLGASVTLTCTLSSGFDNYQVAWYQQRPGKGPRFVMRVGNGGNVASKGDGIPDRFSVSGSGLNRYLTIKNIQEDDESDYYCGADHGSGNNFVSPYVFGGGTKLTVL
Question: Which Trimeric HA Binding: RLU [28] does the source give for B3 here?
Answer: Its Trimeric HA Binding: RLU is 4260 RLU.

Question: What about the Trimeric HA Binding: RLU [29] of the same binder?
Answer: The Trimeric HA Binding: RLU was 27500 RLU.

Question: What about the Trimeric HA Binding: RLU [30] of the same binder?
Answer: The Trimeric HA Binding: RLU was 19900 RLU.

Question: What about the Trimeric HA Binding: RLU [31] of the same binder?
Answer: The Trimeric HA Binding: RLU was 9470 RLU.

Question: What about the Trimeric HA Binding: RLU [32] of the same binder?
Answer: Its Trimeric HA Binding: RLU is 18100 RLU.

Question: And the Trimeric HA Binding: RLU [33]?
Answer: Its Trimeric HA Binding: RLU is 272 RLU.

Question: And the Trimeric HA Binding: RLU [34]?
Answer: The Trimeric HA Binding: RLU was 26300 RLU.

Question: And the Trimeric HA Binding: RLU [35]?
Answer: Its Trimeric HA Binding: RLU is 20200 RLU.

Question: What about the Trimeric HA Binding: RLU [36] of the same binder?
Answer: Its Trimeric HA Binding: RLU is 1410 RLU.

Question: What about the Trimeric HA Binding: RLU [37] of the same binder?
Answer: Its Trimeric HA Binding: RLU is 8570 RLU.

Question: And the Trimeric HA Binding: RLU [38]?
Answer: Its Trimeric HA Binding: RLU is 15100 RLU.

Question: And the Trimeric HA Binding: RLU [39]?
Answer: The Trimeric HA Binding: RLU was 25400 RLU.

Question: And the Trimeric HA Binding: RLU [40]?
Answer: Its Trimeric HA Binding: RLU is 5860 RLU.

Question: What about the Trimeric HA Binding: RLU [41] of the same binder?
Answer: The Trimeric HA Binding: RLU was 369 RLU.

Question: What about the Trimeric HA Binding: RLU [42] of the same binder?
Answer: The Trimeric HA Binding: RLU was 16000 RLU.

Question: What about the Trimeric HA Binding: RLU [43] of the same binder?
Answer: Its Trimeric HA Binding: RLU is 251 RLU.
